PMC7325720 (The Journal of Infectious Diseases, 2019)

Columns and labels:
[1] = molecular target: the molecule itself; assay: crystal structure
[2] = molecular target: T1, MBP-CD74 (CD74 ectodomain fused to maltose binding protein), biotinylated (UniProt P04233 73-296, biotin (EZ-Link Sulfo-NHS-LC-Biotinylation kit)); assay: BLI
T1 sequence (looked up): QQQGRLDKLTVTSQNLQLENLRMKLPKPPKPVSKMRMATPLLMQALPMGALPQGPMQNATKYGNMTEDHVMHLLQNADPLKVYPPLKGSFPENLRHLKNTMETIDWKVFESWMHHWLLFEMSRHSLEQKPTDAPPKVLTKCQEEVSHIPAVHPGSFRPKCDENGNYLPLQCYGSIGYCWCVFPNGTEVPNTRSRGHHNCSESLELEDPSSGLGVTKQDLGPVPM

B1: Entamoeba histolytica macrophage migration inhibitory factor (Eh-MIF) (natural protein)
chain: MPHALITLSADITEEIKKEIAHESMKILSEVIGKPISYCATQVVTSVGGFGGKIVKSAFIDIKSISGLKGKQEGLSDRYCKLLEQKAGIEGGNIYLNFTEMTGNNWGYDHSTF
stoichiometry N [1]: 3
Kd [2]: 11.2 nM

B2: human macrophage migration inhibitory factor (human MIF) (natural protein, UniProt P14174 1-115, looked up)
chain: MPMFIVNTNVPRASVPDGFLSELTQQLAQATGKPPQYIAVHVVPDQLMAFGGSSEPCALCSLHSIGKIGGAQNRSYSKLLCGLLAERLRISPDRVYINYYDMNAANVGWNNSTFA
Kd [2]: 18.2 nM
